Assays:
[1] = test system: GST-2E11 (fusion protein between GST and a KCNQ2-15b polypeptide comprising exons 13, 14 and 15b; encoded by pGEX-2TK-2E11)
[2] = test system: GST (glutathione S-transferase expressed from the pGEX2TK plasmid; negative control) [GST: P08515]
Chain of GST (glutathione S-transferase expressed from the pGEX2TK plasmid; negative control) [GST: P08515] (P08515 whole entry): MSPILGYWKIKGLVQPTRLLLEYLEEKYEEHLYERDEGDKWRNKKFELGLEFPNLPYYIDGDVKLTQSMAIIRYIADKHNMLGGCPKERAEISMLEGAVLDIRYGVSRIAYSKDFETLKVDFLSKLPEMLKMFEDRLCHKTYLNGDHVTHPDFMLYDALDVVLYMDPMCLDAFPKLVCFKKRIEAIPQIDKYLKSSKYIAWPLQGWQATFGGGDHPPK

Chain of GST-2E11 (fusion protein between GST and a KCNQ2-15b polypeptide comprising exons 13, 14 and 15b; encoded by pGEX-2TK-2E11) (chain, as listed by the source): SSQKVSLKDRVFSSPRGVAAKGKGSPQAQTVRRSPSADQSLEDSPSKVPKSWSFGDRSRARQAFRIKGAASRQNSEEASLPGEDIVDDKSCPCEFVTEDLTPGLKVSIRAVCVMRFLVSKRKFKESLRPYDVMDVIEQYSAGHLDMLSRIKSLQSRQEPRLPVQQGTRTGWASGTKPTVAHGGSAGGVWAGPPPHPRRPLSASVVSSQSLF

Substance | in vitro phosphorylation with [32P]γATP, SDS-PAGE and autoradiography [1] | in vitro phosphorylation with [32P]γATP, SDS-PAGE and autoradiography (negative control with GST instead of GST-2E11) [2] | in vitro phosphorylation in the presence of 5 µg of CREB phosphopeptides as competitor [1]
Protein Kinase A Catalytic Subunit (PKA from bovine heart, Sigma) | a band located at a position corresponding to a protein of a size of about 45 kD did appear | No bands appeared in the three lines corresponding to the negative controls | –
recombinant GSK-3β kinase (New England Biolabs) | a band located at a position corresponding to a protein of a size of about 45 kD did appear | No bands appeared in the three lines corresponding to the negative controls | A band did still appear at a position corresponding to the size of GST-2E11, but the intensity of the band was very significantly lower
